Substitutions are numbered along the chain they refer to. Numbers in names are those of the source.
B1: antibody A_G2AAAS_A (antibody)
chain 1: QVQLVQSGAEVKKPGASVKVSCKASGYTFTNHYMHWVRQAPGQGLEWMGIINPISGSTSNAQKFQGRVTMTRDTSTSTVYMELSSLRSEDTAVYYCARDIVDAFDFWGQGTMVTVSSASTKGPSVFPLAPCSRSTSESTAALGCLVKDYFPEPVTVSWNSGALTSGVHTFPAVLQSSGLYSLSSVVTVPSSNFGTQTYTCNVDHKPSNTKVDKTVERKCCVECPPCPAPPAAAPSVFLFPPKPKDTLMISRTPEVTCVVVDVSHEDPEVQFNWYVDGVEVHNAKTKPREEQFNSTFRVVSVLTVVHQDWLNGKEYKCKVSNKGLPASIEKTISKTKGQPREPQVYTLPPSREEMTKNQVSLTCLVKGFYPSDISVEWESNGQPENNYKTTPPMLDSDGSFFLYSKLTVDKSRWQQGNVFSCSVMHEALHAHYTQKSLSLSPGK
chain 2: not shown
B2: antibody A_G2AAAS_QL (antibody)
chain 1: B1 chain 1 with T246Q, M424L, A430N
chain 2: not shown
B3: antibody D105E (antibody, human IgG1, V domains shown)
VH: QVQLVQSGAEVKKPGASVKVSCKASGYTFTNHYMHWVRQAPGQGLEWMGIINPISGSTSNAQKFQGRVTMTRDTSTSTVYMELSSLRSEDTAVYYCARDIVDAFEFWGQGTMVTVSS
VL: AIQLTQSPSSLSASVGDRVTITCRASQGISSALVWYQQKPGKAPKLLIYDASSLESGVPSRFSGSGSGTDFTLTISSLQPEDFATYYCQQFNDYFTFGPGTKVDIK
notes: also called modified antibody D105
B4: antibody A_A (antibody, human IgG1, name in EU numbering)
heavy: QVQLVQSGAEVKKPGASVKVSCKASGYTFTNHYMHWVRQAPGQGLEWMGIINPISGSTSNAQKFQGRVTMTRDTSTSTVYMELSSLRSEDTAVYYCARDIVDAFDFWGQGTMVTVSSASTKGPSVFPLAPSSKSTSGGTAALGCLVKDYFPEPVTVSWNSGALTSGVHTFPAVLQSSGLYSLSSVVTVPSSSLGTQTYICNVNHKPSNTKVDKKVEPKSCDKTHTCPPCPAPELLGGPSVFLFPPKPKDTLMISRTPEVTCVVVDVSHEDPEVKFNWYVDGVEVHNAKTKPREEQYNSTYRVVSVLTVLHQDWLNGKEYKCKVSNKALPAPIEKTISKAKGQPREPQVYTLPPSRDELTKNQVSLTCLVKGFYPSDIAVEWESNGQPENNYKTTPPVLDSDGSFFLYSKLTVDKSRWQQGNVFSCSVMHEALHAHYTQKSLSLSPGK
light: B3 VL
notes: not shown: human kappa chain constant region; copies: 2 + 2
B5: antibody A_G2 (antibody, human IgG2)
heavy: B1 chain 1 with A231V, A233G, S327P, S374A, A430N
light: B3 VL
notes: domain: CH; CH of antibody A replaced by a CH of human IgG2; also called A2_G2; not shown: human kappa chain constant region; copies: 2 + 2
B6: antibody D105H (antibody, human IgG1, V domains shown)
VH: B3 VH with E105H
VL: B3 VL
notes: as for B3
B7: antibody D105W (antibody, human IgG1, V domains shown)
VH: B3 VH with E105W
VL: B3 VL
notes: as for B3
B8: antibody D105I (antibody, human IgG1, V domains shown)
VH: B3 VH with E105I
VL: B3 VL
notes: as for B3
B9: antibody A_YTE (antibody, IgG1)
heavy: QVQLVQSGAEVKKPGASVKVSCKASGYTFTNHYMHWVRQAPGQGLEWMGIINPISGSTSNAQKFQGRVTMTRDTSTSTVYMELSSLRSEDTAVYYCARDIVDAFDFWGQGTMVTVSSASTKGPSVFPLAPSSKSTSGGTAALGCLVKDYFPEPVTVSWNSGALTSGVHTFPAVLQSSGLYSLSSVVTVPSSSLGTQTYICNVNHKPSNTKVDKKVEPKSCDKTHTCPPCPAPELLGGPSVFLFPPKPKDTLYITREPEVTCVVVDVSHEDPEVKFNWYVDGVEVHNAKTKPREEQYNSTYRVVSVLTVLHQDWLNGKEYKCKVSNKALPAPIEKTISKAKGQPREPQVYTLPPSRDELTKNQVSLTCLVKGFYPSDIAVEWESNGQPENNYKTTPPVLDSDGSFFLYSKLTVDKSRWQQGNVFSCSVMHEALHNHYTQKSLSLSPGK
light: B3 VL
notes: IgG1 CH with M252Y/S254T/T256E (EU index); not shown: human kappa chain constant region; copies: 2 + 2
B10: antibody A_G2_A (antibody, human IgG2, name in EU numbering)
heavy: B1 chain 1 with A231V, A233G, S327P
light: B3 VL
notes: domain: CH; Human IgG2 CH with modification (10-3), EU index; not shown: human kappa chain constant region; copies: 2 + 2
B11: antibody D105K (antibody, human IgG1, V domains shown)
VH: B3 VH with E105K
VL: B3 VL
notes: as for B3
B12: antibody D105N (antibody, human IgG1, V domains shown)
VH: B3 VH with E105N
VL: B3 VL
notes: as for B3
B13: antibody D105L (antibody, human IgG1, V domains shown)
VH: B3 VH with E105L
VL: B3 VL
notes: as for B3
B14: antibody D105Y (antibody, human IgG1, V domains shown)
VH: B3 VH with E105Y
VL: B3 VL
notes: as for B3
B15: antibody D105F (antibody, human IgG1, V domains shown)
VH: B3 VH with E105F
VL: B3 VL
notes: as for B3
B16: antibody D105R (antibody, human IgG1, V domains shown)
VH: B3 VH with E105R
VL: B3 VL
notes: as for B3
B17: antibody D105S (antibody, human IgG1, V domains shown)
VH: B3 VH with E105S
VL: B3 VL
notes: as for B3
B18: antibody A_G2_P (antibody, human IgG2, name in EU numbering)
heavy: B1 chain 1 with A231V, A233G, V304P, S327P, A430N
light: B3 VL
notes: domain: CH; Human IgG2 CH with modification (10-4), EU index; not shown: human kappa chain constant region; copies: 2 + 2
B19: antibody D105G (antibody, human IgG1, V domains shown)
VH: B3 VH with E105G
VL: B3 VL
notes: as for B3
B20: antibody A_G2_YTE (antibody)
heavy: B1 chain 1 with A231V, A233G, M248Y, S250T, T252E, S327P, S374A, A430N
light: B3 VL
notes: as for B4
B21: antibody A_P (antibody, human IgG1, name in EU numbering)
heavy: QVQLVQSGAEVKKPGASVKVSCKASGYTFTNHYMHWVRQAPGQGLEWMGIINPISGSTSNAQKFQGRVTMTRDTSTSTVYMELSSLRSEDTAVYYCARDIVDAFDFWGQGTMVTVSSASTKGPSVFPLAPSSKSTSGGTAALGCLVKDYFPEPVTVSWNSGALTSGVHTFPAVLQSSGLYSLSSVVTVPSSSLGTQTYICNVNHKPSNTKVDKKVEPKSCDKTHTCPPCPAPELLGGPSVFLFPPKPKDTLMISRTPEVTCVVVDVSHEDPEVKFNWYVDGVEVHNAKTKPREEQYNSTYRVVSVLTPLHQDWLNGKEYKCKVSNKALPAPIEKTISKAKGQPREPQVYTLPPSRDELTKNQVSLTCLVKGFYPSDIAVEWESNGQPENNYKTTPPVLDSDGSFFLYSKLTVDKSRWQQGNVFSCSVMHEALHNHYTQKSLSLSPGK
light: B3 VL
notes: positions are EU index; not shown: human kappa chain constant region; copies: 2 + 2
B22: antibody D105V (antibody, human IgG1, V domains shown)
VH: B3 VH with E105V
VL: B3 VL
notes: as for B3
B23: antibody D105P (antibody, human IgG1, V domains shown)
VH: B3 VH with E105P
VL: B3 VL
notes: as for B3
B24: antibody D105M (antibody, human IgG1, V domains shown)
VH: B3 VH with E105M
VL: B3 VL
notes: as for B3
B25: antibody D105Q (antibody, human IgG1, V domains shown)
VH: B3 VH with E105Q
VL: B3 VL
notes: as for B3

Columns and labels:
[1] = molecular target: T1, human FcRn (human FcRn-His tag with human β2 microglobulin) (human, UniProt P55899 24-297; P61769 21-119); test: SPR pH 6, FcRn-His captured by anti-His, antibody analyte
T1 construct: also called h FcRn; hFcRn

[2] = molecular target: T2, monkey FcRn (monkey FcRn-His tag with monkey β2 microglobulin) (cynomolgus monkey, UniProt Q8SPV9 24-297; Q8SPW0 21-119); test: as above
T2 construct: also called cyno FcRn; cynomolgus monkey FcRn extracellular domain His-tag body

[3] = molecular target: T3, Recombinant Human FGF-23 (R&D Systems, Cat No. 2604-FG-025/CF) (human, UniProt Q9GZV9 25-251); test: SPR, antibody captured by anti-human IgG, FGF-23 analyte
T3 construct: Bought protein
T3 sequence (looked up): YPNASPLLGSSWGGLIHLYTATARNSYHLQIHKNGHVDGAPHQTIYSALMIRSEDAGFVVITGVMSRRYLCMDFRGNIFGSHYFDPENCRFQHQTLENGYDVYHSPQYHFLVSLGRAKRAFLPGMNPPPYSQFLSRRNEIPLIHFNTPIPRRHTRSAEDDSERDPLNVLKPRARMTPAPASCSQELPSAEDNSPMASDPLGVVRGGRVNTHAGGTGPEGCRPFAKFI

[4] = molecular target: T3, Recombinant Human FGF-23 (R&D Systems, …); test: cell-based or functional assay

T2 sequence (Q8SPV9 other isoform, or with tags, fused parts or gaps limits assumed, chain 1 of 2): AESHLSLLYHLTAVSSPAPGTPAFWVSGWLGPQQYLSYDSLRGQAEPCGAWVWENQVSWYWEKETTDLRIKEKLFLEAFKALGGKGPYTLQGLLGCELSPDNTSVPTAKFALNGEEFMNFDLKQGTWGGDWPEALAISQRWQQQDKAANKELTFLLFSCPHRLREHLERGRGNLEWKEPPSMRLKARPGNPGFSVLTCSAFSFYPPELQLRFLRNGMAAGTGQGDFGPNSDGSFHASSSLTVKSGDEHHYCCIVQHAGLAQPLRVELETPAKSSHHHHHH
T2 sequence (Q8SPW0 21-119 limits assumed, chain 2 of 2): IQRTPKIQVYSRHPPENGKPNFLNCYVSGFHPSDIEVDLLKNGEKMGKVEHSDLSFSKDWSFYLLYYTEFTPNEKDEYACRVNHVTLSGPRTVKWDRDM
T1 sequence (P55899 other isoform, or with tags, fused parts or gaps limits assumed, chain 1 of 2): as the sequence (Q8SPV9 other isoform, or with tags, fused parts or gaps limits assumed, chain 1 of 2) above, with D39N, Q44E, S99G, G189S, N190S, M217L, T269S counted along it
T1 sequence (P61769 21-119 limits assumed, chain 2 of 2): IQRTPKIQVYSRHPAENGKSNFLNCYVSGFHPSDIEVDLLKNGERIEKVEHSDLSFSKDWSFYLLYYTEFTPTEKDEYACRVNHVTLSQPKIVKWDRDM

Row | Binder | Kd [1] [nM] | Kd [2] [nM] | Kd [3] [nM] | FGF23 neutralizing activity IC50 (luciferase promoter assay) [4] [µg/mL]
1 | B1 | 247 | 129 | – | –
2 | B2 | 213 | 69 | – | –
3 | B3 | – | – | 0.017 | –
4 | B4 | 308 | 155 | – | –
5 | B5 | 624 | 233 | – | –
6 | B6 | – | – | 0.143 | 0.0467
7 | B7 | – | – | 0.149 | 0.0779
8 | B8 | – | – | 0.0734 | 0.0237
9 | B9 | 159 | 115 | – | –
10 | B10 | 286 | 133 | – | –
11 | B11 | – | – | 0.262 | 0.0457
12 | B12 | – | – | 0.046 | 0.014
13 | B13 | – | – | 0.0639 | 0.0256
14 | B14 | – | – | 0.102 | 0.0216
15 | B15 | – | – | 0.178 | > 0.1
16 | B16 | – | – | 1.91 | > 0.1
17 | B17 | – | – | 0.106 | 0.0278
18 | B18 | 234 | 78.2 | – | –
19 | B19 | – | – | 0.0975 | 0.0331
20 | B20 | 186 | 39.1 | – | –
21 | B21 | 183 | 60.2 | – | –
22 | B22 | – | – | 0.263 | > 0.1
23 | B23 | – | – | 0.201 | 0.0992
24 | B24 | – | – | 0.671 | > 0.1
25 | B25 | – | – | 0.252 | > 0.1

Source: patent publication US20250163140A1 (Kyowa Kirin, published 2025)
